Test results as given in patent publication US11241502B2, “Stable compositions of pegylated carfilzomib compounds” (AMGEN INC., priority 2017, dated 2022).

Legend:
[1] = reverse phase assay of main API peak (integrity of the molecule); type: physicochemical
Experimental: In order to identify stable formulations of PEG-CFZ, various formulations were made wherein the desired pegylated carfilzomib compound (API) was dissolve in experimental compositions of excipients, and the stability and quantity of the intact, non-degraded API was monitored and measured in the frozen state (−20° C. or below). Formulations of API was also prepared and tested to determine the ability of each exemplary formulation to provide adequate stability in the liquid state to be suitable for clinical and commercial administration. Here, these formulations were stored at least 8 hours at room temperature and 2 days at a temperatures ranging from 2-8° C. All formulations that were tested contained desired API compounds at 1 mg/mL concentrations.
For each formulation, the stability of the API was tested using three observable and/or measurable characteristics, as follows: • 1. Integrity of the molecule, as assessed by the reverse phase assay; • 2. Clarity of the solution, via visual assessment; and • 3. Concentration of the API material in the solution, as assessed by material recovery after centrifugation Results
FIG. 2 illustrates results of similar measurements taken with the same formulations prepared with exemplary pegylated carfilzomib compound no. 39 instead of example 26. API material recovery is similarly shown in red and percent main API peak at To and T3, as measured by the same reverse phase assay, after storage at 25° C. for 3 days, is shown. Solutions for temperature and time storage conditions were generally prepared as follows—CFZ API was dissolved in formulation buffer by stirring at room temperature for a period of 5 minutes until complete dissolution. Samples were then sterile filtered using 0.2 micron PES filters under aseptic conditions into 3 cc vials, using a 1 ml fill. […]
The percent recovery of the exemplary pegylated carfilomib compounds were measured as a function of reverse phase assays for the peak(s) representing the active molecule/compound. The percent was determined based on the area under the curve, as described below. The reverse phase assays were conducted as follows—CFZ samples were analyzed by reverse phase using a Phenomenex Gemini C18, 50×4.6 mm, 3 micron particle size column with a 47 minute HPLC method. […] Main peak percentage was determined by taking Area Under the Curve integration. […] The concentration of each unknown sample was calculated using the equation of the trend-line generated from this calibration curve by plugging in the total integrated area.
For each exemplary formulation, the stability of the API was tested or measured by six different criteria or methods, as follows: • 1. Integrity of the molecule, as assessed by the reverse phase assay; • 2. […]

[2] = test system: human colorectal adenocarcinoma cancer cell; test: mouse xenograft model of human colorectal adenocarcinoma; details: once-weekly intravenous dosing; Example 13 200 mpk or 150 rising to 250 mpk after 3 week; CFZ-captisol 5 mpk; within 19 days of the first dose
[3] = in humans; cited from earlier work

4-((4S,7S,10S,13S)-10-Benzyl-7-isobutyl-15-methyl-13-((R)-2-methyloxirane-2-carbonyl)-2,5,8,11-tetraoxo-4-phenethyl-3,6,9,12-tetraazahexadecyl)-4-(4-(isobutyryloxy)-3-((PEG5K-imino)methyl)benzyl)morpholin-4-ium Methanesulfonate [Example 26]
main API peak loss (Table 6) ([1]; 5kPEG-CFZ compound example 26, 25° C. (8 h), 4° C. (in 1 week) and −70° C. (in 2 weeks)): minimal main API peak loss
main API peak loss, 4° C. Loss per 1 week ([1]; A5Su formulation, API at 20 mg/mL, storage at 4° C.): 0.0
main API peak loss, 25° C. loss per 8 hr ([1]; A5Su formulation, API at 20 mg/mL, storage at 25° C.): 0.0
main API peak loss, −70° C. loss per 2 weeks ([1]; A5Su formulation, API at 20 mg/mL, storage at −70° C.): 0.0

4-((4S,7S,10S,13S)-10-Benzyl-7-isobutyl-15-methyl-13-((R)-2-methyloxirane-2-carbonyl)-2,5,8,11-tetraoxo-4-phenethyl-3,6,9,12-tetraazahexadecyl)-4-(3-((1-(PEG20K-4-Arm)-1H-1,2,3-triazol-4-yl)methoxy)-4-(pivaloyloxy)benzyl)morpholin-4-ium Formate [Example 13]
tumor growth compared to vehicle control [2]: significant attenuation of tumor growth

CC(C)C[C@H](NC(=O)[C@H](CCc1ccccc1)NC(=O)CN1CCOCC1)C(=O)N[C@@H](Cc1ccccc1)C(=O)N[C@@H](CC(C)C)C(=O)[C@@]1(C)CO1 [Carfilzomib]
half-life in-vivo [3]: ≤ 1 h
